Results taken from paper doi:10.1101/2021.08.02.453806.

Target: MBP-PPM-1.D-10xHIS (C. elegans)
Assay: pull-down

fold CHK-2 pulled down, normalized, relative to truncated PPM-1.D: 20 fold
B1: GST-CHK-2-3xFLAG (enzyme)
chain: MVRGTKRRRSSAEKPIVVVPVTRDDTMPVDEDLVVGESQCAASKPFAKLVGVRRGISSIDLADDHFVCGRGSDDAPTNFNFSQVAKDVGLYRFISKIQFSIDRDTETRRIYLHDHSRNGTLVNQEMIGKGLSRELMNGDLISIGIPALIIFVYESADADHHPEELTKKYHVTSHSLGKGGFGKVLLGYKKSDRSVVAIKQLNTQFSTRCSRAIAKTRDIRNEVEVMKKLSHPNIVAIYDWITVAKYSYMVIEYVGGGEFFSKVVDSKYNRMGLGESLGKYFAFQLIDAILYLHSVGICHRDIKPENILCSDKAERCILKLTDFGMAKNSVNRMKTRCGTPSYNAPEIVANEGVEYTPKVDIWSLGCVLFITFSGYPPFSEEYTDMTMDEQVLTGRLIFHAQWRRITVETQNMIKWMLTVEPSNRPSAVELMSTQWMKCADCRTAKQDILKSIKPISAAAPAALQTTQAGPVKKAKM
